Reference: the DeepSol protein solubility set

assay: soluble on expression in E. coli; label from the status in PepcDB or PDB records

Sequence	soluble on expression in E. coli
GSHMSGKARLHYPVTRQGEQVDHYFGQAVADPYRWLEDDRSPETEAWVKAQNAVTQDYLAQIPYRAAIKEKLAASWNYAKEGAPFREGRYHYFFKNDGLQNQNVLWRQQEGKPAEVFLDPNTLSPDGTTALDQLSFSRDGRILAYSLSLAGSDWREIHLMDVESKQPLETPLKDVKFSGISWLGNEGFFYSSYDKPDGSELSARTDQHKVYFHRLGTAQEDDRLVFGAIPAQHHRYVGATVTEDDRFLLISAANSTSGNRLYVKDLSQENAPLLTVQGDLDADVSLVDNKGSTLYLLTNRDAPNRRLVTVDAANPGPAHWRDLIPERQQVLTVHSGSGYLFAEYMVDATARVEQFDYEGKRVREVALPGLGSVSGFNGKHDDPALYFGFENYAQPPTLYRFEPKSGAISLYRASAAPFKPEDYVSEQRFYQSKDGTRVPLIISYRKGLKLDGSNPTILYGYGGFDVSLTPSFSVSVANWLDLGGVYAVANLRGGGEYGQAWHLAGTQQNKQNVFDDFIAAAEYLKAEGYTRTDRLAIRGGSNGGLLVGAVMTQRPDLMRVALPAVGVLDMLRYHTFTAGTGWAYDYGTSADSEAMFDYLKGYSPLHNVRPGVSYPSTMVTTADHNDRVVPAHSFKFAATLQADNAGPHPQLIRIETNAGHGAGTPVAKLIEQSADIYAFTLYEMGYRELPRQP	soluble
MSLSQEMIKKWLDEEGFLRMEVPDENARFHYVVNYPEDHVIDIIQPAGKDDMILIACATSVSPEHQAGIRALSMEKRTEFIWKVRFTLNRFGVDFQLDHPENVLNSYLVTDEIFFDGLSKDRLISSIKNVFRAKLQVMWMIQERFGEERPEHDSMYVEGHHHHHH	soluble
MKAWEIARKPRVVVYPGDPLTYVRAMMRREEEPIAVVVVESEKSEKVVGYITWNEVIQVTSHYSHLRAKDAMLDYPVAFKDDDIGDVYKRMVEEKVYAIPVLESRDNPNLVGVVTVADIVRALRRAGFK	not soluble
MAGDPMYKIGIDVGGTNTDAVILDHQLNLIHSVKVPTTDDIQTGIAGALNKVLAESAVDPTKVTHAMLGTTQCTNAIVERKKLAKVGVLRLGYPATASVLPYTAWPKDLVATLSETYALAHGGYEYDGQPLTALDEEELRGILASWRGEVEAIAVIGVFSSLKNDQELFVQALAKEVLGADVPVSCSSMIGSVGLIERENATILNAALHKVIKVTSEGFEQALEQEKIHHAQVYLCQNDGTLMSLTYAKQFPILTIACGPTNSIRGASYLAGLKDAVVLDVGGTTSDIGVLVDGFPRESSLAVDVGGVRTNFRMPDIVSIGVGGGSLVREQPDGSVTVGPDSVGYRITQEALVFGGTQLTTTDIAVRLGHAQVGDPSKVAHLDQAFAEKVYQKIGELVSEAIDRMKTSSADVTVVLVGGGSIIIPEELTGVKALIRNKNGAVANAIGASIAQISGQYEQIYVYSKIQRDAALTDAQEKAVQQAELAGAVPGTIELVEVEETPLAYHPENATRLRVKVVGNMYLEHHHHHH	soluble
MGSDKIHHHHHHMVPMTRFDSATEVVRVGENRYAVELDPGYLIGTAMNGGYLMTVLQRSALAESDHLHAVSSSYHFHRPASSGPAEIETRVLKRGRTVTTVQTTLFQEGRTILTGTLATATLDPHAEPRYAAPQPAIPPQHQCRRVDPRQSHLPDDGFLARVDVDFSPDSYAALARERTVTTPELCGYVDLSARDGGSAKDPLAFLPLAVDALPPIVSLLVDWSWAPTVELTWHLRAIPEPGPLAFRSTCALVSDGWFDENVDLWDARGRLVAQSRQLARVGR	not soluble
MEKIKIIVASDSIGETAELVARAGISQFNPKQCKNELLRYPYIESFEDVDEVIQVAKDTNAIIVYTLIKPEMKQYMSEKVAEFQLKSVDIMGPLMDLLSASVEEKPYNEPGIVHRLDDAYFKKIDAIEFAVKYDDGKDPKGLPKADIVLLGISRTSKTPLSQYLAHKSYKVMNVPIVPEVTPPDGLYDIDPKKCIALKISEEKLNRIRKERLKQLGLGDTARYATEARIQEELNYFEEIVSEIGCPVIDVSQKAIEETANDIIHYIEQNKSKLEHHHHHH	not soluble
MGSDKIHHHHHHMLATYLKSLNENDRSLYNEGEDVIQGLIQSPKTLPPKYFYDDYGSELFEQICELSEYYPTRTEAWILRQYADEIAQITGNCELVELGSGSSTKTLFLLDAYQKIASHCRYIPIDVSHGILKSSVLKLQQKYPNFFVEGLIGTYEQALIKLESTFAASRMIFFLGSSLGNFNPRECDDFLRQITRTLQAGDYFLLGIDLQKPKEILEPAYNDSQGVTAAFNLNILSHLNWRFQGNFDLSLFTHQAIYNENDAQIEMYLHCQKSHEVSLEALDLQVSFAGGESILTEISRKFDLVNMQKQLETHGLKTLKTWTDPNQWFGLILCQA	not soluble
GAMGSMSVSEANGTETIKPPMNGNPYGPNPSDFLSRVNNFSIIESTLREGEQFANAFFDTEKKIQIAKALDNFGVDYIELTSPVASEQSRQDCEAICKLGLKCKILTHIRCHMDDARVAVETGVDGVDVVIGTSQYLRKYSHGKDMTYIIDSATEVINFVKSKGIEVRFSSEDSFRSDLVDLLSLYKAVDKIGVNRVGIADTVGCATPRQVYDLIRTLRGVVSCDIECHFHNDTGMAIANAYCALEAGATHIDTSILGIGERNGITPLGALLARMYVTDREYITHKYKLNQLRELENLVADAVEVQIPFNNYITGMCAFTHKAGIHAKAILANPSTYEILKPEDFGMSRYVHVGSRLTGWNAIKSRAEQLNLHLTDAQAKELTVRIKKLADVRTLAMDDVDRVLREYHADLSDADRITKEASA	soluble
MGSDKIHHHHHHMTNDSIKSETEVAPRDQSAVGTIPWAIKGELILNCNCTVFCPCVVSLGKHPPTEGYCQAWAGVRIDEGHYGDADLSGLNVGLVLEIPGLMARGNWKAAAYIDERASDAAYEGLIDVFSGKARGTTGLFKVLVSEFLGAERAPVLFETEGKTRRLIVGYYIHGEVVPVGGADSDQDIVVTNTEYWMGPDITVATATKGRVRAFGRVWDFDGRSAEICQIDWKGPR	not soluble
MRAVIPYKKAGAKSRLSPVLSLQEREEFVELMLNQVISSLKGAGIEQVDILSPSVYGLEEMTEARVLLDEKDLNEALNRYLKEAEEPVLIVMADLPLLSPEHIKEISSTEKDVCIVPGKGGGTNALFIKNPSKYRVKYYGSSFLTHCSIATDSGQDFEIYDSFMAGTDIDEPEDLVELLIHGKGAAKDYIESKFRLEVKKG	not soluble
MNIFVNMRIMVAHTPDPDDAFMFYGMFEGKIRTSNQYEQVIKDIETLNKESKEGKYEVTAISANGYVQVRDLYKLTRSGASFGISYGPIVVARNEIDLSKSRMGVPGFMTSSYLLYRMFGPEAKEYVEIKFDEIPDAILTGKVDAGILIHDEQLTFQKRGLKEVFDIYSAWKSYAGNLPIPLGFNAIRKDLDEDTVNKFLYDFERSIRYAMAHEEEAVKYAMKYARYTDLDLERRFVRMYVNELSIDFGDTGRKALELYYNRAAGKGLIPPFKPEIV	not soluble
GKAVIAIHGGAGAISRAQMSLQQELRYIEALSAIVETGQKMLEAGESALDVVTEAVRLLEECPLFNAGIGAVFTRDETHELDACVMDGNTLKAGAVAGVSHLRNPVLAARLVMEQSPHVMMIGEGAENFAFARGMERVSPEIFSTSLRYEQLLAARKEGATVLDHSGAPLDEKQKMGAVGAVALDLDGNLAAATSTGGMTNKLPGRVGDSPLVGAGCYANNASVAVSCTGTGEVFIRALAAYDIAALMDYGGLSLAEACERVVMEKLPALGGSGGLIAIDHEGNVALPFNTEGMYRAWGYAGDTPTTGIYREKGDTVATQ	soluble
MAHHHHHHMGGAVSFCLQKLNKVSEVEYRPYKEYASYGEQSVPVKGSDDSGRSMIYRMSNTSEEELKRLRDEWYAGGSCLSVLERLCKERGKRTCLAYRKLKTIEKNETTTSDGRKKVLETYVFEPERRTMSYTLFWQNIVDFGRGLHEIGLTKGNTVSIYEETRWQWLCTMYSCWSQGLLVSTVYANLGEDALQYALDEAQCNAIVCNGSKVKDVLAMFKVIEAPKGTKVIYLDELPPSVTSEEYDLYAWSDVVARGKKSEASCRIPSGAESKDELALIMYTSGTTGNPKGVMHTHGSLYCGCMTISQRINDLLGKMKEQEWYCSYLPLAHIMELAVTSVLMMRGVIIGYGSPRTLLDTFAKPCGDLTTYRPLVFVAVPRVFDSMKRAVEEKLPPPGSLKRKIFDKAYEARLKALKKGCDTPFFNKRVFANARKVMGGRVYAMLSGGGPLSESTQEFINVVFGMVIQGWGMTESVACGGIQRTGNLEYNCVGQVLKTAEVQLLDTDEFKHTDQPEPRGEVLLRGPFLFKGYYKQPEQTREALDNDGWLHTGDVASVTPSGTMRIVGRVKALAKNANGEYLALEMLESIYGTNEITVPNGVCVLVHPHRTYIAIIAVTNEKLVKAFMKKHKIENGGFPAILDDAEFLRVVLQSLQKTARDANRCSFEVVQGVKLLNEEWTPENGVLTAAMKLKRRVISENYADFINKLFEKQ	not soluble
MKLAELSKEEIQELSMVEVAYLVMKETKEPFNYQDLLKKVAELKGMSEEQMLDRIGYLYTDLNIDGRFVTLGDNRWGLRSWYPLEQVEEEITGPTKKKAKAKAEEEVDELDENIEVFDDEFEDLEDELDELAESEDSDEEDEEFDEGDDIDELDDEFEESDDDL	not soluble
MGSDKIHHHHHHMKGAVTTDVEAGGLRGRMYASRATSDVRPRADAPTFVLIHGIGVSHRYLVRLHHVLAGVADTISIDLPGFGSTPRPDRQLMVADQAAFIHDVLDQAGVGLRVLVGHSMGAQFVLEAALQRPEQVPHVVLMGPVVDVRRRTLPRQILALTKDALLHETPGSNALVFSDYLRCGPLWYLKELRVMMNYRTEERIRGLTTPVMILRGASDPIATGEWCRILARRAPAGTLVEVPGCGHVVQHTGTAQVADAITGFTGLPGSGAPEQTVNRQ	not soluble
MPELEVKGKKLRLDEDGFLQDWEEWDEEVAEALAKDTRFSPQPIELTEEHWKIIRYLRDYFIKYGVAPPVRMLVKHCKKEVRPDCNLQYIYKLFPQGPAKDACRIAGLPKPTGCV	soluble
MSSSGNGRSNNDRADQLRREEQERKDRELAERLQREQSDDTPPAVARRGRNRAAARERASPYSRSRIRSTAGTSDAGPSSSSSVRGRGTRGTTSARRGRGSARGGEATMNRTRANQQISESPNRRRSTRQTRNPNPQMQFEGDRVQVRQGDEIRDITAETYFPDDDDDSDYTQSDNEEEEERNATITISSSESDADSEAESDHEERDMPRAFNPRGSYARSGRGPGGRGRVITPGRYRGSGQHNISADYIRDLLHSRIYPDNPRRDPLYRSGLNNEDESDPENVDADSDDDEAQSNGSSVIDLSDDDDVLIIGGRGAVHADRNHIRQPIFDEDRVMYNHELELYHDEEEYIVPAAKPVSAGGKLVEPDSTWGDCTMCSNPPIKPQGCKKCLQFLGCTDCVRRWYAARKGSMEGSSCPLCRAPWTGRAGVLMMTTIQKNVKKAGITSANTSSDSSLPSTSSLPNN	not soluble
LFTPDKQRITESVAFKDLSSPELEQYIGDTQAEKLRADIELIDGVYQPFDKEEYLAGQLAPVFFGSALNNFGVQELLNCFVEIAPSPQPVAAVERKVDPHEEEFTGFVFKIHANMDPNHRSCIAFVKICSGRFERNTNYKHIRLGKQFRFSSPTAFMAQRKETVDEAYAGDIIGLPDTGNFQIGDTLTAGEELHFRGLPSFSPELFKYIENQDPMKAKQLAKGIDQLMGEGVAQLFTNQFNGRKIIGTVGQLQFEVIQYRLLHEYGAQCRWEPISLYKACWIDSDKPEALEAFKKRKAQYMAKDIAGRDVYLADSGYVLNMAQQDFPDIRFHFTSEF	not soluble
